The record followed here is the supplement of paper PMC12042874.

± gives the uncertainty stated by the source.

One data set is described as follows: amyloid nucleation score (Sup35N fusion, yeast selection) (log enrichment); library NNK2; higher = more nucleation; inactive = no reads after selection. The method in brief:
(§1)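 DiMSum was used to calculate nucleation scores as log enrichment of output over input reads, centred on the mode score of non-aggregating sequences. Sequences with fewer than 100 input reads were not scored. Input and output came from Illumina sequencing of plasmid inserts in psi-negative yeast expressing peptides of 20 random codons fused to Sup35N, induced 24 hours with 100 μM copper sulfate and then grown 7 days at 30°C on medium lacking adenine and uracil.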
Consider NVFSS, for which the amyloid nucleation score was -0.42 ± 0.35. The substance YISVCSYCH returned an amyloid nucleation score of 4.9 ± 0.056. The same measure, in the same setting: as for YITAGFKESTSGQRQLRSWL, the figure is 2.08 ± 0.083; as for YIVLCYSFRFVFF, “inactive”.

Consider YKCRDLFGGRQINREHYLCY, for which the amyloid nucleation score is -1.26 ± 0.62.

As to YKISDRVALISYPNFAIVWT, the amyloid nucleation score is -2.25 ± 0.78. The substance YKMPK gave an amyloid nucleation score of 0.443 ± 0.8.

Take YKSDYSKLLCWKNYKFWLVC: the amyloid nucleation score was -1.07 ± 0.37. The substance YLASNLEDKWVWDGFMLVSR showed an amyloid nucleation score of 0.356 ± 0.74.

As to YLDTHWIYY, the amyloid nucleation score was 0.056 ± 0.63. The same measure, in the same setting: as for YLFKPSPTSHYCAFCTVYRN, the figure is 3.84 ± 0.079.

YLGLPLQDLRRVIMSEHVLV came in with an amyloid nucleation score of 0.779 ± 0.37. Take YLGTDGFNDGLVGLTTNIMS: the amyloid nucleation score was -0.798 ± 0.47. For YLHHIRCGYWVVVFVSTGSA, the amyloid nucleation score is -0.252 ± 0.41. With YLIPFMYAKCLSWVILRK, the amyloid nucleation score amounted to 0.029 ± 0.23. Regarding YLLGKSYF, the amyloid nucleation score was -1.08 ± 0.36.

YLLRYYGGSFNHLMCWFRSP: the amyloid nucleation score was 2.6 ± 0.06.

Turning to YLLSNWTNKVSWFLCVRPQS, the amyloid nucleation score was determined as 2.23 ± 0.12. Consider YLLYYNKWGLIK, for which the amyloid nucleation score entry is “inactive”.

As for YLNCDSFMRSVVYFNLWDIG, the amyloid nucleation score is -1.57 ± 0.75. YLPRRSGRLRPGMRNNMPFR had an amyloid nucleation score of 0.12 ± 0.28.

In the case of YLRFYRSIINILIKGSAFCV, the amyloid nucleation score is -1.49 ± 1.1. With YLRRGNKLCESTLVVTCTMV, the amyloid nucleation score was -0.087 ± 1. Consider YLRRL, for which the amyloid nucleation score is -0.775 ± 0.61. YLTEALPDRSRYRSTSVMCV registered an amyloid nucleation score of 1.86 ± 0.32. Regarding YLVNNNFFVTIVILVWRTGV, the amyloid nucleation score worked out at 1.39 ± 0.18.

Turning to YMCCFYAVGFPFDYKLGFVR, the amyloid nucleation score came out at 4.35 ± 0.068. Same read-out and setting: as for YMDNCSYRYSVTESTRNTAG, the figure is 0.17 ± 0.74; as for YMHILLLRFVQILTIRIVLL, -0.85 ± 0.37. In turn, YMKNSGHDMASLRNIYLIFR yielded an amyloid nucleation score of 5.15 ± 0.075. The substance YMLINAMVTFFMHGVDRKRR displayed an amyloid nucleation score of 5.516 ± 0.055. Regarding YMLLRSYVFTKLLRLHCYRN, the amyloid nucleation score result was “inactive”. For the substance YMLNHVIQNMSSWCEVT, the amyloid nucleation score is -0.103 ± 0.34.

With YMRVLGVDGHIRCVWLD, the amyloid nucleation score result is “inactive”. The substance YMRVLYIRRLWIHFL showed an amyloid nucleation score of 1.92 ± 0.18. YMYGVNNASSF registered an amyloid nucleation score of 5.79 ± 0.054.

For YMYILAVLSVSSLIVNYDLK, the amyloid nucleation score entry was “inactive”. For the substance YNFLWWSMKDT, the amyloid nucleation score entry is “inactive”.

Consider YNKGWR, for which the amyloid nucleation score entry is “inactive”.

With YNMGNSGLGGTRWEIICFAI, the amyloid nucleation score was -1.02 ± 0.5. Take YNPSYLMELNEV: the amyloid nucleation score was -0.376 ± 0.55.

For YNRLMVGRPRLQHLSL, the amyloid nucleation score was -1.51 ± 0.39. For the substance YNTQVCEVVMWGQHPTTLSS, the amyloid nucleation score was -0.418 ± 0.41. For the substance YNWVNTPGHVNL, the amyloid nucleation score is -1.4 ± 0.62. For YNYLCWNRKKGANRTCVSGR, the amyloid nucleation score is -0.502 ± 0.44. Regarding YPFILVVTIEYACLVRRLGV, the amyloid nucleation score is -0.309 ± 0.23.

On to YPGWPMKTVQ, for which the amyloid nucleation score stood at 3.97 ± 0.05. YPRALIHVWKKSLVHTSRCR came in with an amyloid nucleation score of 7.14 ± 0.079. On the same count and under the same terms, as for YPYSPLSKRRNLRWINFVRC, the figure is -1.46 ± 1.1; as for YQAGWDEVGSLCLRVRNEKL, 4.38 ± 0.074. For the substance YQGNIRVGISRSRK, the amyloid nucleation score was determined as 0.36 ± 0.41. For the substance YQGSLGSDMAISKLFDSDYE, the amyloid nucleation score is -0.656 ± 1.1.

With YQHDT, the amyloid nucleation score was found to be 0.871 ± 0.27.

For YRCSDLYK, the amyloid nucleation score came to 2.47 ± 0.29.

Regarding YRDRINSNYFALDFNILLHY, the amyloid nucleation score was 3.57 ± 0.046. As to YRGQLARCDILHSWQTVCSM, the amyloid nucleation score was -0.337 ± 0.49.

For the substance YRLAFKMRNHGYQVELGLSV, the amyloid nucleation score was -0.088 ± 1.1. The substance YRLVHNSKREPGWRSCEWDH showed an amyloid nucleation score of 0.046 ± 0.63. With YRRSPFETSGLQSCYCGSIG, the amyloid nucleation score is -0.003 ± 1.1. Regarding YRSIC, the amyloid nucleation score was -1.63 ± 0.75. As to YRTPYFIAIQDQRYCLVSLG, the amyloid nucleation score is -0.87 ± 0.45. On to YRVNALKQIMLRLKQFCRLA, for which the amyloid nucleation score is -0.647 ± 0.64. YRVYLVFYDFVFVFYMSKYL: the amyloid nucleation score entry is “inactive”. Consider YRYCSCMNLAWERFGNPEGQ, for which the amyloid nucleation score is -0.399 ± 0.46. In turn, YSAPCGGDGESWDGFKMMEH had an amyloid nucleation score of 0.053 ± 1.1. As to YSEQNKWSRFVTDGGNLV, the amyloid nucleation score was -0.802 ± 0.61. The same measure, in the same setting: as for YSFFCSMILYPIHDNVGWSF, the figure is 4.86 ± 0.088. Still for that read-out and setting: as for YSFLWSVTATFDVTIISGCA, the figure is 3.1 ± 0.05.

YSFNALRRY: the amyloid nucleation score amounted to 0.632 ± 0.25. YSFRGWSSSVWVTGWCGRSA returned an amyloid nucleation score of 0.45 ± 0.62.

Regarding YSFVCIRIGPLKEVCKLNSC, the amyloid nucleation score is -0.774 ± 1.1. In the case of YSIKQAY, the amyloid nucleation score entry was “inactive”. Regarding YSISQLWYTLTIHVPFHPLK, the amyloid nucleation score was -0.114 ± 0.15. As for YSLLNVSHVVFTSA, the amyloid nucleation score is -0.71 ± 0.61. Regarding YSRFYLYMSRRGMRS, the amyloid nucleation score is -0.122 ± 0.53. Same read-out and setting: as for YSRWRSLCTGAAFPGFWLNT, the figure is 1.96 ± 0.14; as for YSSCLCLQCTRMQTPMVQFL, 0.032 ± 0.53; as for YSSFDISLYFGNHHWSLMTR, 4.11 ± 0.078. As to YSSSKNTVVMSAKSMVRLRT, the amyloid nucleation score came to 0.52 ± 0.56. YSTTDHKWSRNLGIIMVVMW: the amyloid nucleation score was found to be 0.185 ± 0.48. On the same count and under the same terms, as for YSVDACMMNGSVDKTVSFR, the figure is 0.122 ± 1.1. Substance YSVLTLED returned an amyloid nucleation score of 0.374 ± 0.29. The same measure, in the same setting: as for YTANLWYQAWMYSYCENPPT, the entry is “inactive”. Regarding YTAWMALKNGRLVSGFKAR, the amyloid nucleation score stood at 0.009 ± 0.34. Same read-out and setting: as for YTFGTNWVCW, the figure is 3.6 ± 0.062.

YTFYLNF came in with an amyloid nucleation score of 5.27 ± 0.053. YTTQLGWWFFRGRTTLNKWV yielded an amyloid nucleation score of 1.06 ± 0.61. For YTVYFSVGVVVE, the amyloid nucleation score was -1.42 ± 0.49.

For YVCLFEFVMVCCDFTLFCKV, the amyloid nucleation score was 0.585 ± 0.8. The substance YVDTRLKTSVLFRK registered an amyloid nucleation score of 3.93 ± 0.043. On the same count and under the same terms, as for YVHMMSMKPHQLINCLRLFY, the figure is -1.2 ± 0.74; as for YVLDFSNWIGDTADSIVAV, 0.145 ± 0.56.

Turning to YVLIVRYILGSSLRELAYGR, the amyloid nucleation score is -0.38 ± 0.3. Still for that read-out and setting: as for YVLKLRRSRQSLSHRPALLY, the entry is “inactive”. YVLRYYALVLYFLICWYYAY yielded an amyloid nucleation score of 0.215 ± 0.57.

YVRKVKA displayed an amyloid nucleation score of 0.276 ± 1. In turn, YVSFMGNSNMFVKLFLRGCI had an amyloid nucleation score of 0.391 ± 0.2. As to YVVKWPCGLTPCALPTPIRQ, the amyloid nucleation score is 0.969 ± 0.21. On to YVWSWVGQYCRVIAAHGIWW, for which the amyloid nucleation score was 0.79 ± 0.26. Regarding YWACDTFSILVLGNTVDSLD, the amyloid nucleation score result is “inactive”.

As for YWELDCTGYEGGMIRREWEI, the amyloid nucleation score is 0.586 ± 0.81. In the case of YWFARCHFSPAMRIYYRTRA, the amyloid nucleation score was -0.171 ± 0.62. Take YWGGLCHLMSYRFTCIKYVG: the amyloid nucleation score is -0.698 ± 0.64.

On to YWLNMWFYRSSASYRSMDMD, for which the amyloid nucleation score was -0.713 ± 0.55.

As for YWSICPCCFLVSFSDTSWKG, the amyloid nucleation score turned out to be 8.138 ± 0.057. With YWSVV, the amyloid nucleation score came out at 3.73 ± 0.11. Take YYFDPS: the amyloid nucleation score is -0.961 ± 0.62. Same read-out and setting: as for YYIALWVVGHMGYIDGCTSC, the figure is 2.45 ± 0.1. For the substance YYKKTVVPYRLYAGLELIAT, the amyloid nucleation score was -0.607 ± 0.48. Regarding YYLFGKF, the amyloid nucleation score was -0.509 ± 1.1. YYLGWIMLVHYGSWTTCLVR came in with an amyloid nucleation score of 0.531 ± 0.64. For the substance YYQVVTNNLSI, the amyloid nucleation score came to 0.129 ± 0.76. On the same count and under the same terms, as for YYRRNKIWSVSQQWGGIRSR, the figure is 0.596 ± 0.62. Still for that read-out and setting: as for YYSFPISIGWVSNCMFVWEV, the figure is 6.53 ± 0.073; as for YYSPQSVKEYPRNTYRLIKA, -0.613 ± 0.45. Still for that read-out and setting: as for YYSVGNAGL, the figure is -1.3 ± 0.39; as for YYTCTLSRWRQSAYLGGRLR, 0.284 ± 0.26. With YYTLWVTLTRLTNC, the amyloid nucleation score was -0.288 ± 0.5.

The next data set can be described thus: amyloid nucleation score (Sup35N fusion, yeast selection) (log enrichment); library NNK3; higher = more nucleation; inactive = no reads after selection. An outline of the steps:
as §1
As to NVFSS, the amyloid nucleation score result is “inactive”.

A further data set is described as follows: amyloid nucleation score (Sup35N fusion, yeast selection) (log enrichment); library NNK1; higher = more nucleation; inactive = no reads after selection. An outline of the steps: as §1
Substance AAGHVAVAIRNRVVIARSRT showed an amyloid nucleation score of 3.4 ± 0.11. For the substance AAMCLLIWRACRISVDMHMC, the amyloid nucleation score was -0.205 ± 0.27. For AANCTMMFKKPSWNVTRERV, the amyloid nucleation score is 0.26 ± 0.34. AARRLNELSSELKWMCSATD: the amyloid nucleation score is -0.077 ± 0.4.

For AAVMCAIDLIGLNFGLGNWK, the amyloid nucleation score is 7.816 ± 0.052. As for ACARTTDIFV, the amyloid nucleation score is -1 ± 1.1. On the same count and under the same terms, as for ACDTS, the figure is 0.693 ± 0.45; as for ACPVGTRFTVATTFRRMLCE, 0.312 ± 0.47. In the case of ACWYLKRFLIMGKLSWS, the amyloid nucleation score was -0.15 ± 0.3.

Substance ADARVQGLSRLWGSGFNRLP came in with an amyloid nucleation score of 0.53 ± 0.51. Substance ADCFCNRFNVICVKHYGSAR displayed an amyloid nucleation score of 0.159 ± 0.42. Regarding ADDACVSET, the amyloid nucleation score entry is “inactive”. Take ADDGCSRNVCQTLYMSFLVN: the amyloid nucleation score was -0.072 ± 0.35.

In the case of ADDVCSCQGFLYRDVFCATD, the amyloid nucleation score was 0.531 ± 0.93. As for ADIPCQNCVSYVRYFGLNVI, the amyloid nucleation score is -0.094 ± 0.48. For ADLSISRWCLCGRNALGLFF, the amyloid nucleation score is 5.12 ± 0.07. The same measure, in the same setting: as for ADSFSI, the figure is -0.118 ± 0.44.
